Where no end group is shown, it is not given here. [ ]: non-standard residue; d: D form. Aib = CC(C)(N)C(=O)O
Assay: Circular dichroism: degree of helicity (free, SUVs, micelles, TFE)
Conditions: for He (%) free: percent helicity of free, unbound peptide; for He (%) TFE: percent helicity of peptide-TFE solution; for He (%) mics: percent helicity of peptide-micelle complexes; for He (%) SUVs: percent helicity of peptide-SUV complexes
Description: Far UV circular dichroism spectra were recorded between 190 and 260 nm (in 0.5 nm or 0.2 nm increments) with a AVIV62DS spectrometer (AVIV Associates, Lakewood, N.J., USA) equipped with a thermoelectric cell holder and sample changer. The instrument was calibrated with (+)-10-camphoric acid. Between one and three scans were collected for each sample, using 10 cm, 5 cm, 1 cm and 0.1 cm path length quartz Suprasil cells, respectively, for peptide concentrations of 10^−7 M to 10^−4 M. The bandwidth was fixed at 1.5 nm and the scan speed to 1 s per wavelength step. The reported data are the mean of at least 2 or 3 independent measurements.
After background substraction, spectra were converted to molar ellipticity (θ) per residue in deg. […] dmol^−1. The peptide concentration was determined by amino acid analysis and also by absorption spectrometry on a Perkin Elmer Lambda 17 UV/Visible spectrophotometer when the peptide contained a chromophore (tryptophane, dansyl, naphtylalanine).
CD spectra were obtained with free, unbound peptide (5 μM in 5 mM phosphate buffer, pH 7.4); with peptide-SUV complexes (20:1 EPC:Chol., Ri=30 and Ri=50); with peptide-micelle complexes (1-myristoyl-2-hydroxy-sn-glycero-3-phosphatidyl choline, Ri=100); and with free, unbound peptide in the presence of 2,2,2-trifluoroethanol (TFE) (5 μM peptide, 90% vol TFE).
The SUVs were obtained by dispersing the lipids (10 mM, 20:1 EPC:Chol., Avanti Polar Lipids, Ala.) in phosphate buffer (5 mM, pH 7.4) with bubbling N2 for 5 min., followed by sonication (1.5 hr.) in a bath sonicator. The homogeneity of the preparation was checked by FPLC.
The micelles were obtained by dispersing the lipid (6 mM 1-myristoyl-2-hydroxy-sn-glycero-3-phosphatidyl choline, Avanti Polar Lipids, AL) in phosphate buffer (5 mM, pH 7.4) with bubbling N2 for 5 min., followed by vortexing.
To obtain the peptide-SUV complexes, SUVs were added to the peptide (5 μM in 5 mM phosphate buffer, pH 7.4) at a phospholipid-peptide molar ratio (Ri) of 30 or 50.
To obtain the peptide-micelle complexes, micelles were added to the peptide (5 μM in 5 mM phosphate buffer, pH 7.4) at a Ri of 100.
All spectra were recorded at 37° C. The stability of peptide 4 (SEQ ID NO:4) as a function of temperature (both free in buffer and in micelles) was determined by recording spectra at a series of different temperatures.
The degree of helicity of peptide 4 (SEQ ID NO:4) as a function of concentration was also determined.
The degree of helicity of the peptides in the various conditions was determined from the mean residue ellipticity at 222 nm (Chen et al., 1974, Biochemistry 13:3350-3359) or by comparing the CD spectra obtained to reference spectra available on databases (16 helical reference spectra from Provencher & Glockner, 1981, Biochemistry 20:33-37; denatured protein reference spectra from Venyaminov et al., 1993, Anal. Biochem. 214:17-24) using the CONTIN curve-fitting algorithm version 2DP, CD-1 pack (Aug. 1982) (Provencher, 1982, Comput. Phys. Commun. 27:213-227, 229-242). Acceptable fit was determined using the statistical analysis methodology provided by the CONTIN algorithm.

| Substance | He (%) free | He (%) TFE | He (%) mics | He (%) SUVs |
| --- | --- | --- | --- | --- |
| 31 (PVLDLFLELLNE[Aib]LEALKQKLK) [compound 31] | 49% | 90% | 98% | – |
| 35 (PVLDWFRELLNELLEALKQKLK) [compound 35] | – | – | 59% | 61% |
| 36 (PLLELLKELLQELLEALKQKLK) [compound 36] | 95% | 95% | 100% | – |
| 37 (PVLDLFREWLNELLEALKQKLK) [compound 37] | 65% | 73% | 75% | 76% |
| 38 (PVLDLFRELLNE[Aib]LEAWKQKLK) [compound 38] | 25% | 49% | 49% | 21% |
| 39 (PVLDLFRELLEELLKALKKKLK) [compound 39] | 66% | 72% | 69% | 68% |
| 40 (PVLDLFNELLRELLEALQKKLK) [compound 40] | 66% | 77% | 84% | 79% |
| 41 (PVLDLWRELLNE[Aib]LEALKQKLK) [compound 41] | 53% | 69% | 73% | 85% |
| 42 (PVLDEFREKLNE[Aib]WEALKQKLK) [compound 42] | 15% | 76% | 74% | 27% |
| 45 (PVLDEFREKLNE[Aib]LEALKQKLK) [compound 45] | – | 86% | 84% | – |
| 46 (PVLDLFREKLNE[Aib]LEALKQKLK) [compound 46] | 30% | 85% | 86% | 58% |
| 49 (PVLDLFRNLLEKLLEALEQKLK) [compound 49] | 57% | 57% | 65% | 52% |
| 50 (PVLDLFRELLWE[Aib]LEALKQKLK) [compound 50] | 68% | 76% | 84% | 89% |
| 51 (PVLDLFWELLNE[Aib]LEALKQKLK) [compound 51] | 63% | 73% | 82% | 81% |
| 54 (PVLDLFRELLNEWLEALKQKLK) [compound 54] | 76% | 78% | 71% | 84% |
| 55 (PLFRELLNELLEALKQKLK) [compound 55] | 38% | 75% | 72% | 78% |
| 60 (PVLDLFRELLNELLEALKQ) [compound 60] | 39% | 84% | 83% | 66% |
| 62 (PVLDEWREKLNE[Aib]LEALKQKLK) [compound 62] | 15% | – | 85% | 43% |
| 66 (PVLDLFRNLLEELLEALQKKLK) [compound 66] | 64% | 70% | 82% | 66% |
| 67 (VLDLFRELLNELLEALKQKLK) [compound 67] | 81% | 94% | 90% | 84% |
| 70 (PVLDEFRELLYE[Aib]LEALKQKLK) [compound 70] | 27% | 66% | 78% | 33% |
| 76 (PVLDEFRELLFE[Aib]LEALKQKLK) [compound 76] | 41% | 66% | 88% | – |
| 85 (PLDLFRELLNELLEALKQKLK) [compound 85] | 58% | 69% | 61% | 64% |

| Substance | He (%) free | He (%) TFE | He (%) mics | He (%) SUVs |
| --- | --- | --- | --- | --- |
| 91 (PVLDEFRELLNE[Aib]LEALKQKLK) [compound 91] | 43% | 100% | 100% | – |
| 99 (KLKQKLAELLENLLERFLDLVP) [compound 99] | 72% | 80% | 88% | 80% |
| 104 (PLLNELLEALKQKLK) [compound 104] | 21% | 55% | 49% | 29% |
| 105 (PAADAFREAANEAAEAAKQKAK) [compound 105] | 29% | 65% | 28% | 32% |
| 108 (PVLDLFRWLLNE[Aib]LEALKQKLK) [compound 108] | 28% | 54% | 55% | – |
| 113 (PVLDEFREKLNEPLEALKQKLK) [compound 113] | 6% | – | 22% | – |
| 146 (PVLELFENLLERLLDALQKKLK) [compound 146] | 97% | 95% | 100% | 100% |
| 148 (PVLELFENLLERLGDALQKKLK) [compound 148] | 10% | 80% | 76% | 23% |
| 149 (PVLELFENLWERLLDALQKKLK) [compound 149] | 28% | 47% | 54% | – |
| 154 (PVLELFENLLERGLDALQKKLK) [compound 154] | 13% | 80% | 76% | 25% |
| 160 (PVLELFENLLERLLDWLQKKLK) [compound 160] | 65% | 61% | 73% | 75% |
| 162 (PVLELFENWLERLLDALQKKLK) [compound 162] | 68% | – | 83% | 81% |
| 163 (PVLELFENLLERLWDALQKKLK) [compound 163] | 27% | 55% | 53% | – |
| 164 (PVLELFENLLERLLDAWQKKLK) [compound 164] | 37% | 61% | 66% | 51% |
| 192 (Ac-PVLDLFKELLEELKQKLK-NH2) [compound 192] | 36% | 56% | – | – |
| 193 (Ac-PVLDLFRELLEELKQKLK-NH2) [compound 193] | 34% | 87% | 88% | 87% |
| 194 (Ac-PVLELFRELLEELKQKLK-NH2) [compound 194] | 38% | 93% | 93% | – |
| 197 (Ac-PLLDLFRELLEELKQKLK-NH2) [compound 197] | 43% | 69% | 70% | – |
| 199 (Ac-PVLDLFRELWEELKQKLK-NH2) [compound 199] | 35% | 79% | 77% | 80% |
| 209 (PVLDLFRELLNELLQKLK) [compound 209] | 54% | 62% | 71% | 67% |
| 210 (PVLDLFRELLEELKQKLK) [compound 210] | 20% | 53% | 63% | 37% |
| 215 (Ac-PVLDLFRELLEEWKQKLK-NH2) [compound 215] | 28% | 68% | 63% | 53% |
| 217 (PVLDLFRELLELLKQKLK) [compound 217] | 52% | 70% | 78% | 76% |

From patent US6602854B1, “Branched multimeric Apo A-I agonist compounds” (priority 1997, dated 2003)
